Here are results for 1 molecule from patent US20200331999 (published 2020).

A word on the Kd: it is the concentration at which binding is half-saturated. A high value points to weaker binding. The term IC50 denotes the concentration needed to halve the response being measured. Lower therefore signals higher potency.

The target of assay [1] is T1, human TIGIT ECD (human).
T1 chain: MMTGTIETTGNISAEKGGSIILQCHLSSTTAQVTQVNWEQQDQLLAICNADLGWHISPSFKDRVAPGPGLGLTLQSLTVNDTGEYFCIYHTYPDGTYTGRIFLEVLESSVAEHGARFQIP
The assay can be described thus: SPR, pH 6.0. In general terms: In SPR one partner is held on a chip, and binding of the other changes the refractive index at the surface.

The target in assay [2] is T2, human TIGIT-Fc (human).
T2 chain: T1 chain
The assay can be described thus: competition, FACS, blocking binding to PVR on HEK293.

The target in assay [3] is T2, human TIGIT-Fc. Description: competition, FACS, blocking binding to PVR-L2 on HEK293.
The target of assay [4] is T1, human TIGIT ECD. The assay can be described thus: SPR, pH 7.4.

B1: hu1217-2-2/IgG1 (antibody, V domains shown)
VH: EVQLVESGGGLVQPGGSLRLSCAASGFTFSDYYMYWVRQAPGKGLEWVAYITKGGGSTYYPDSVKGRFTISRDNAKNTLYLQMNSLRAEDTAVYYCARQTNYDFTMDYWGQGTLVTVSS
VL: EIVMTQSPATLSVSPGERATLSCKASQDVGTSVAWYQQKPGQAPRLLIYWASARHTGIPARFSGSGSGTEFTLTISSLQSEDFAVYYCQQYSSYPLTFGGGTKVEIK
modifications: wild-type human IgG1 Fc
Take B1: the Kd was found to be 29.9 pM with human TIGIT ECD [1] and 219 pM with human TIGIT ECD [4]. The IC50 was 0.64 µg/mL in the assay with human TIGIT-Fc [2] and 0.25 µg/mL in the assay with human TIGIT-Fc [3].
